{
  "source": "paper PMC9876794",
  "about": "(2022)",
  "binders": {"B1": {"name": "D143 (antibody, V domains shown)", "VH": "EVQLVESGGGLVQPGGSLRLSCAASGFTFSSYSMNWVRQAPGKGLEWVSYISSSSSTIYYADSVKGRFTISRDNAKNSLYLQMNSLRDEDTAVYYCASHYGAPTSYYYYGMDVWGQGTTVTVSS", "VL": "not shown"}, "B2": {"name": "D010 (antibody, V domains shown)", "VH": "EVQLVESGGGLVQPGRSLRLSCAAFGFTFDDYAMHWVRQAPGKGLEWVSGISWNSGSIGYADSVKGRFTISRDNAKNSLYLQMNSLRAEDTALYYCAKDITFRDGYPGAVDYWGQGTLVTVSS", "VL": "not shown"}, "B3": {"name": "D023 (antibody, V domains shown)", "VH": "EVQLVQSGAEVKKPGESLKISCKGSGYSFTSYWIGWVRQMPGKGLEWMGIIYPGDSDTRYSPSFQGQVTISADKSISTAYLQWSSLKASDTAMYYCAISYSGSYSGAFDIWGQGTMVTVSS", "VL": "not shown"}, "B4": {"name": "D016 (antibody, V domains shown)", "VH": "EVQLVESGGGLVQPGRSLRLSCAASGFTFDDYAMHWVRQAPGKGLEWVSGISWNSGSIGYADSVKGRFTISRDNAKNSLYLQMNSLRAEDMALYYCAKDAGIAAVNWYFDLWGRGTLVTVSS", "VL": "not shown"}, "B5": {"name": "D035 (antibody, V domains shown)", "VH": "B4 VH with M91T, A100T, G101V, I102A, A103G, A104L, V105P, N106Y", "VL": "not shown"}, "B6": {"name": "D071 (antibody, V domains shown)", "VH": "EVQLVESGGGLVQPGRSLRLSCTASGFTFGDYAMSWFRQAPGKGLEWLGFIKSKSYGGTTEYAASVKGRFTISREDSKSIAYLQMNSLKTEDTAVYYCTRTIFGVVHFDYWGQGTLVTVSS", "VL": "SYVLTQPPSVSVAPGKTARITCERNNIGSKSVHWYQQKPGRAPVLVIYYDSDRPSGIPERFSGSNSENTATLTISRVEAGDEADYYCQVWNSSSDHPVFGGGTKLTVL"}, "B7": {"name": "D052 (antibody, V domains shown)", "VH": "EVQLVESGGGLVQPGGSLRLSCAASGFTFSSYDMHWVRQATGKGLEWVSAIGTAGDTYYPGSVKGRFTISRENAKNSLYLQMNSLRAGDTAVYYCARVGYSLYGDYKSYWYFDLWGRGTLVTVSS", "VL": "not shown"}, "B8": {"name": "D021 (antibody, V domains shown)", "VH": "QVQLVESGGGVVQPGRSLRLSCAASGFTFSSYGMHWVRQAPGKGLEWVAVISYDGSNKYYADSVKGRFTISRDNSKNTLYLQMNSLRAEDTAVYYCAKAGQYGDYTHSGDYWGQGTLVTVSS", "VL": "DIQMTQSPSSLSASVGDRVTITCQASQDISNYLNWYQQKPGKAPKLLIYDASNLETGVPSRFSGSGSGTDFTFTISSLQPEDIATYYCQQYDNLPIAFGQGTRLEIK"}, "B9": {"name": "D142 (antibody, V domains shown)", "VH": "QVQLVESGGGVVQPGRSLRLSCAASGFTFSSYGMHWVRQAPGKGLEWVAVISYDGSNKYYADSVKGRFTISRDNSKNTLYLQMNSLRAEDTAVYYCAKKPTMYYYDSSGYYYFDYWGQGTLVTVSS", "VL": "QFVLTQPPSVSGAPGQRVTISCTGSSSNIGAGYDVHWYQQLPGTAPKLLIYGNSNRPSGVPDRFSGSKSGTSASLAITGLQAEDEADYYCQSYDSSLSGYVFGTGTKVTVL"}, "B10": {"name": "D028 (antibody, V domains shown)", "VH": "QVQLVQSGAEVKKPGASVKVSCKASGYTFISYYVHWVRQAPGQGLEWMGIINPSGGSTSYTQKFQGRVTMTRDTSTSTVYMELSSLRFEDTAVYYCATEGGMITENSSLHWGQGTLVTVSS", "VL": "DIQMTQSPSTLSASVGDRVTITCRASQSISSWLAWYQQKPGKAPKLLIYKASSLESGVPSRFSGSGSGTEFTLAISSLQPDEFATYYCQQYNSYPWTFGQGTKVEIK"}, "B11": {"name": "D055 (antibody, V domains shown)", "VH": "EVQLVESGGGLVQPGGSLRLSCAASGFTFSSYDMHWVRQATGKGLEWVSAIGTAGDTYYPGSVKGRFTISRENAKNSLYLQMNSLRAGDTAVYYCARGAMVRGVIMVFDYWGQGTLVTVSS", "VL": "not shown"}, "B12": {"name": "D161 (antibody, V domains shown)", "VH": "EVQLLESGGGLVQPGGSLRLSCAASGFTFSSYAMSWVRQAPGKGLEWVSAISGSGGSTSYADSVKGRFTISRDNSKNTLYLQMNSLRVEDTAVYYCAKGPRVTTEYFEYWGQGTLVTVSS", "VL": "not shown"}, "B13": {"name": "C2732 (antibody, V domains shown)", "VH": "EVQLVESGGGLVQPGRSLRLSCAASGFTFDDYAMHWVRQAPGKGLEWVSGISWNSGSIGYADSVKGRFTISRDNAKNSLYLQMNSLRAEDTALYYCAKDIGRIAEGYGMDVWGQGTTVTVSS", "VL": "QSALTQPASVSESPGQSITISCTGTSSDIGGYNYVSWYQQHPGKAPKLMIYEVSNRPSGVSNRFSGSKSGNTASLTISGLQAEDEADYYCSSYTSSSTVVFGGGTKLTVL"}, "B14": {"name": "D123 (antibody, V domains shown)", "VH": "EVQLVESGGGLVQPGRSLRLSCAASGFIFDDYAMHWVRQVPGKGLEWVSGISWNGGIIGQADSVKGRFTISRDNAKNSLYLQMNNLRAEDTALYFCTKDVGPGSPNYFDSWGQGTLVTVSS", "VL": "DIQMTQSPSTLSASVGDRVTITCRASQSISSWLAWYQQKPGKAPKFLIYKTSNLENGVPSRFSGSGSGTEFTLTISSLQPDDFATYFCQEYITNSRTFGQGTRLEIK"}, "B15": {"name": "D160 (antibody, V domains shown)", "VH": "QVQLVQSGAEVKKPGASVKVSCKASGYTFTTYGFSWVRQAPGQGLEWMGWISGYNGNTHYAQKVQGRVTMTTDTSTTTAYMELRSLTYDDTAVYYCARAGDDEANAFDIWGQGTMVTVSS", "VL": "DIQMTQSPSTLSASVGDRVTITCRASQTISIWLAWYQQKPGKAPKLLIYKASKIQSGVPSRFSGSESGTEFTLTISSLQPDDFATYYCQQYNSYPLTFGGGTKVESK"}, "B16": {"name": "C2694 (antibody, V domains shown)", "VH": "EVQLVESGGGLVQPGRSLRLSCAASGFTFDDYAMHWVRQAPGKGLEWVSGISWNSGSIGYADSVKGRFTISRDNAKNSLYLQMNSLRAEDTALYYCAKDSLLWYDSSGYYHYYYYGMDVWGQGTTVTVSS", "VL": "not shown"}, "B17": {"name": "D132 (antibody, V domains shown)", "VH": "EVQLVESGGGLVQPGRSLRLSCAASGFTFDDYAMHWVRQAPGKGLEWVSGISWNSGSIGYADSVKGRFTISRDNAKNSLYLQMNSLRNDDTALYYCAKGRIGGNYYLLDYWGQGTLVTVSS", "VL": "not shown"}, "B18": {"name": "D072 (antibody, V domains shown)", "VH": "QVQLQQWGAGLLKPSETLSLTCAVYGGSFSGHYWSWIRQSPGKGLEWIGEINHSGDTNYNASLKSRVTISVDTSKNQFSLQMTSVTAADTAVYYCARRRGIVLMRAVDVWGKGTTVTVSS", "VL": "EIVMTQSPATLSLSPGERATLSCRASQSVSNNYFSWYQQKPGQAPRLLIYGASARATGIPARFSGSGSGTEFTLTISSLQPEDIALYFCQQDFHPYTFGQGTKLEIK"}, "B19": {"name": "D097 (antibody, V domains shown)", "VH": "EVQLVQSGAEVKKPGESLKISCKGSGYSFTSYWIGWVRQMPGKGLEWMGIIYPGDSDTRYSPSFQGQVTISADKSISTAYLQWSSLKASDTAMYYCARLGDAGAFDIWGQGTMVTVSS", "VL": "QSVLTQPPSVSGAPGQRVTISCTGSSSNIGAGYDVHWYQQLPGTAPKLLIYGNSNRPSGVPDRFSGSKSGTSASLAITGLQAEDEADYYCQSYDSSLSGSKVFGGGTKLTVL"}, "B20": {"name": "C2691 (antibody, V domains shown)", "VH": "EVQLVESGGGLVQPGRSLRLSCAASGFTFDDYAMHWVRQAPGKGLEWVSGISWNSGSIGYADSVKGRFTISRDNAKNSLYLQMNSLRAEDTALYYCAKDNRLDTMVRGGRVDAFDIWGQGTMVTVSS", "VL": "not shown"}, "B21": {"name": "D105 (antibody, V domains shown)", "VH": "QVQLQQWGAGLLKPSETLSLTCAVFGGSFSGYYWSWIRQPPGKGLEWIGEINHSGSTNYNPSLKSRVTLSVDTSKNQFSLELSSVTAADTAVYYCARVGPILFDYWGQGTLVTVSS", "VL": "QFVLTQPPSVSAAPGQKVTISCSGSSSNIGNNYVSWFQQLPGTAPKLLIYDNNMRPSRIPDRFSGSKSGTSATLGITGLQTGDEADYYCGTWDSSLSSVVFGGGTKLTVL"}, "B22": {"name": "D182 (antibody, V domains shown)", "VH": "QVQLVESGGGVVQPGRSLRLSCAASGFTFSSYGMHWVRQAPGKGLEWVAVISYDGSNKYYADSVKGRFTISRDNSKNTLYLQMNSLRAEDTAVYYCAKATVLMVYAGFDYWGQGTLVTVSS", "VL": "NFMLTQPHSVSESPGKTVTISCTGSSGSIASNYVQWYQQRPGSAPTTVIYEDNQRPSGVPDRFSGSIDSSSNSASLTISGLKTEDEADYYCQSYDSSNRWVFGGGTKLTVL"}, "B23": {"name": "C2729 (antibody, V domains shown)", "VH": "QLQLQESGPGLVKPSETLSLTCTVSGGSISSSSYYWGWIRQPPGKGLEWIGSIYYSGSTYYNPSLKSRVTISVDTSKNQFSLKLSSVTAADTAVYYCARRWIQLWSGFDPWGQGTLVTVSS", "VL": "DIQLTQSPSFLSASVGDRVTITCRASQGISSYLAWYQQKPGKAPKLLIYAASTLQSGVPSRFSGSGSGTEFTLTISSLQPEDFATYYCQQLNSYSITFGQGTRLEIK"}, "B24": {"name": "D163 (antibody, V domains shown)", "VH": "QVQLVQSGAEVKKPGASVKVSCKASGYTFTSYYMHWVRQAPGQGLEWMGIINPSGGSTSYAQKFQGRVTMTRDTSTSTVYMELSSLRSEDTAVYYCARDFSLIPATAMVLDYWGQGTLVTVSS", "VL": "DIQMTQSPVSLSASVGDRVTITCRASQSISSWLAWYQQKPGKAPKLLIYKASSLESGVPSRFSGSGSGTEFTLTISSLQPDDFATYYCQQYNSYASFGQGTKVEIK"}, "B25": {"name": "D168 (antibody, V domains shown)", "VH": "EVQLVESGGGLVKPGGSLRLSCAASGFTFSSYSMNWVRQAPGKGLEWVSSISSSSSYIYYADSVKGRFTISRDNAKNSLYLQMNSLRAEDTAVYYCARDLGTAIVYVREKYYYGMDVWGQGTTVTVSS", "VL": "not shown"}, "B26": {"name": "D033 (antibody, V domains shown)", "VH": "QVQLVESGGGVVQPGRSLRLSCAASGFTFSYYAMHWVRQAPGKGLEWVAVISYDGINKYYADSVKGRFTFSRDNSKNTLYLQMNSLSAEDTAVYYCARPYCGGDCYRAPDYWGQGTLVTVSS", "VL": "QSVLTQEPSLTVSPGGTVTLTCGSSTGAVTSSHYPYWFQQKPGQVPRTLIYDTSNKHSWTPARFSGSLLGGKAALTLSGAQPEDEADYYCLLSYSGVRRVFGGGTKLTVL"}},
  "note": "Changes are numbered by the printed parent chain.",
  "data": [
    {"target": "SARS-CoV-2 spike RBD (WT) (Severe acute respiratory syndrome …, UniProt P0DTC2)", "experiment": "ELISA", "set-up": "unit not given here", "values": [
      {"binder": "B1", "binding score": 39.5},
      {"binder": "B2", "binding score": "> 10000"},
      {"binder": "B3", "binding score": "> 10000"},
      {"binder": "B4", "binding score": 5250},
      {"binder": "B5", "binding score": "> 10000"},
      {"binder": "B6", "binding score": "> 10000"},
      {"binder": "B7", "binding score": 49},
      {"binder": "B8", "binding score": 4670},
      {"binder": "B9", "binding score": "> 10000"},
      {"binder": "B10", "binding score": "> 10000"},
      {"binder": "B11", "binding score": 9930},
      {"binder": "B12", "binding score": "> 10000"},
      {"binder": "B13", "binding score": 376},
      {"binder": "B14", "binding score": 7780},
      {"binder": "B15", "binding score": 491},
      {"binder": "B16", "binding score": "> 10000"},
      {"binder": "B17", "binding score": 9490},
      {"binder": "B18", "binding score": "> 10000"},
      {"binder": "B19", "binding score": "> 10000"},
      {"binder": "B20", "binding score": "> 10000"},
      {"binder": "B21", "binding score": 1340},
      {"binder": "B22", "binding score": 2500},
      {"binder": "B23", "binding score": "> 10000"},
      {"binder": "B24", "binding score": "> 10000"},
      {"binder": "B25", "binding score": 4730},
      {"binder": "B26", "binding score": "> 10000"}
    ]}
  ]
}
